Article PMC9482650, “Quantitative fragmentomics allow affinity mapping of interactomes” (Nature Communications, 2022)
Residue numbers refer to the chain shown, from its start.

T1: GRIP1_7, Q9Y3R0
T1 sequence (Q9Y3R0 999-1096, limits assumed, looked up): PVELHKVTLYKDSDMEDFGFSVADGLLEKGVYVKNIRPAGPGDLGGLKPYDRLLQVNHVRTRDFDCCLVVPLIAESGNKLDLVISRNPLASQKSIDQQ

T2: LIN7A, O14910
T2 sequence (O14910 103-200, limits assumed, looked up): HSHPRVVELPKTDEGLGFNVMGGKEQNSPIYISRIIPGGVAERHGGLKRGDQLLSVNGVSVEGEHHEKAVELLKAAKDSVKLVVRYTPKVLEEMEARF

T3: SYNJ2BP, P57105
T3 sequence (P57105 8-110, limits assumed, looked up): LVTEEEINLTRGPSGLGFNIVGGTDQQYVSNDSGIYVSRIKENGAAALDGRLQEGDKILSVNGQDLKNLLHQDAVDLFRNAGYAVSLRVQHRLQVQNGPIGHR

T4: MPDZ_5, O75970
T4 sequence (O75970 695-796, limits assumed, looked up): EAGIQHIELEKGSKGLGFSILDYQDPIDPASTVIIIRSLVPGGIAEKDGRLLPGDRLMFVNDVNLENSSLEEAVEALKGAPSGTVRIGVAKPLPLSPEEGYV

T5: GRIP1_4, Q9Y3R0
T5 sequence (Q9Y3R0 467-571, limits assumed, looked up): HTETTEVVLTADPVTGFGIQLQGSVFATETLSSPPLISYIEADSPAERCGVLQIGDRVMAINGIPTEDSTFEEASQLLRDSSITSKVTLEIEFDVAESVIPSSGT

T6: SNTB1, Q13884
T6 sequence (Q13884 107-205, limits assumed, looked up): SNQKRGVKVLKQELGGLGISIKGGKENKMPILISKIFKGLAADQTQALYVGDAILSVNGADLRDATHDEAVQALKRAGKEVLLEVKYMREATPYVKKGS

T7: PTPN13_1, Q12923
T7 sequence (Q12923 1088-1188, limits assumed, looked up): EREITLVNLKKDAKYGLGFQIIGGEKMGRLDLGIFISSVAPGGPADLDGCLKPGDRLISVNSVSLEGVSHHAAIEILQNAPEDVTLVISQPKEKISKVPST

T8: DFNB31_3, Q9P202
T8 sequence (Q9P202 811-907, limits assumed, looked up): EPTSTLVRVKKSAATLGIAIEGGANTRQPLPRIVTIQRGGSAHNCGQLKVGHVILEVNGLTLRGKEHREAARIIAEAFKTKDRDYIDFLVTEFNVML

T9: LIN7C, Q9NUP9
T9 sequence (Q9NUP9 88-185, limits assumed, looked up): T2 sequence (O14910 103-200, limits assumed, looked up) with D13E, V20I, V40I, E42D, K77Q, D78G, S79K, A96S

T10: SNTG1, Q9NSN8
T10 sequence (Q9NSN8 52-150, limits assumed, looked up): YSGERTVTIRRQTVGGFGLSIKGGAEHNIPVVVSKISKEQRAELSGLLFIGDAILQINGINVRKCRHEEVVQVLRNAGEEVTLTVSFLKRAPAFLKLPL

T11: NHERF3_3, Q5T2W1
T11 sequence (Q5T2W1 238-333, limits assumed, looked up): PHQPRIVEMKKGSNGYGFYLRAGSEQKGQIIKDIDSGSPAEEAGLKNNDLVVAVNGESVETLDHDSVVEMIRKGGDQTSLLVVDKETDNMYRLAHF

T12: RAPGEF6, Q8TEU7
T12 sequence (Q8TEU7 525-625, limits assumed, looked up): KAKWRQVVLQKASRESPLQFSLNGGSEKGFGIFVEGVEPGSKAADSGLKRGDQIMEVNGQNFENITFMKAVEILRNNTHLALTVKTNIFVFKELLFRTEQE

T13: PDZD2_2, O15018
T13 sequence (O15018 329-429, limits assumed, looked up): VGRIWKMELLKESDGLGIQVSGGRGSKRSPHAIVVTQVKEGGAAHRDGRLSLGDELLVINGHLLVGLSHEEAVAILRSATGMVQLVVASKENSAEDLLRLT


Target: T1, GRIP1_7, Q9Y3R0
Experiment: holdup assay
Parameters: key: below the threshold = too weak to quantify, mostly under pKd 3.1 to 4
Conditions: plain residues with an end cap or a label only (N-terminal biotin on a linker: ado-ado)

Binder | pKd
VISERNSTTV [C3AR1, Q16581] | below the threshold
FEEEAEEEVA [TUBB4B, P68371] | below the threshold

Target: TJP1_3, Q07157
Experiment: holdup assay
Parameters: key: below the threshold = too weak to quantify, mostly under pKd 3.1 to 4
Conditions: plain residues with an end cap or a label only (N-terminal biotin on a linker: ado-ado)

Chain of TJP1_3, Q07157 (Q07157 416-512): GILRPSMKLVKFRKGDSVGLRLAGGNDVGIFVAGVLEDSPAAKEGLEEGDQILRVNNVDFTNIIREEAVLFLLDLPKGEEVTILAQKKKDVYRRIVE

Binder | pKd
VISERNSTTV [C3AR1, Q16581] | below the threshold
FEEEAEEEVA [TUBB4B, P68371] | below the threshold

Target: T2, LIN7A, O14910
Experiment: holdup assay
Parameters: key: below the threshold = too weak to quantify, mostly under pKd 3.1 to 4
Conditions: plain residues with an end cap or a label only (N-terminal biotin on a linker: ado-ado)

Binder | pKd
VISERNSTTV [C3AR1, Q16581] | below the threshold
FEEEAEEEVA [TUBB4B, P68371] | below the threshold

Target: FRMPD3, Q5JV73
Experiment: holdup assay
Parameters: key: below the threshold = too weak to quantify, mostly under pKd 3.1 to 4
Conditions: plain residues with an end cap or a label only (N-terminal biotin on a linker: ado-ado)

Chain of FRMPD3, Q5JV73 (Q5JV73 12-100): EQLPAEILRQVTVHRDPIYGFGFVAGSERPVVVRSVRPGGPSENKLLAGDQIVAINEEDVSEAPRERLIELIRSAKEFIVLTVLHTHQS

Binder | pKd
VISERNSTTV [C3AR1, Q16581] | below the threshold
FEEEAEEEVA [TUBB4B, P68371] | below the threshold

Target: T3, SYNJ2BP, P57105
Experiment: holdup assay
Parameters: key: below the threshold = too weak to quantify, mostly under pKd 3.1 to 4
Conditions: plain residues with an end cap or a label only (N-terminal biotin on a linker: ado-ado)

Binder | pKd
VISERNSTTV [C3AR1, Q16581] | 4.68
FEEEAEEEVA [TUBB4B, P68371] | below the threshold

Target: T4, MPDZ_5, O75970
Experiment: holdup assay
Parameters: key: below the threshold = too weak to quantify, mostly under pKd 3.1 to 4
Conditions: plain residues with an end cap or a label only (N-terminal biotin on a linker: ado-ado)

Binder | pKd
VISERNSTTV [C3AR1, Q16581] | below the threshold
FEEEAEEEVA [TUBB4B, P68371] | below the threshold

Target: T5, GRIP1_4, Q9Y3R0
Experiment: holdup assay
Parameters: key: below the threshold = too weak to quantify, mostly under pKd 3.1 to 4
Conditions: plain residues with an end cap or a label only (N-terminal biotin on a linker: ado-ado)

Binder | pKd
VISERNSTTV [C3AR1, Q16581] | below the threshold
FEEEAEEEVA [TUBB4B, P68371] | below the threshold

Target: T6, SNTB1, Q13884
Experiment: holdup assay
Parameters: key: below the threshold = too weak to quantify, mostly under pKd 3.1 to 4
Conditions: plain residues with an end cap or a label only (N-terminal biotin on a linker: ado-ado)

Binder | pKd
VISERNSTTV [C3AR1, Q16581] | 3.77
FEEEAEEEVA [TUBB4B, P68371] | below the threshold

Target: T7, PTPN13_1, Q12923
Experiment: holdup assay
Parameters: key: below the threshold = too weak to quantify, mostly under pKd 3.1 to 4
Conditions: plain residues with an end cap or a label only (N-terminal biotin on a linker: ado-ado)

Binder | pKd
VISERNSTTV [C3AR1, Q16581] | below the threshold
FEEEAEEEVA [TUBB4B, P68371] | below the threshold

Target: AHNAK1, Q09666
Experiment: holdup assay
Parameters: key: below the threshold = too weak to quantify, mostly under pKd 3.1 to 4
Conditions: plain residues with an end cap or a label only (N-terminal biotin on a linker: ado-ado)

Chain of AHNAK1, Q09666 (Q09666 4-100): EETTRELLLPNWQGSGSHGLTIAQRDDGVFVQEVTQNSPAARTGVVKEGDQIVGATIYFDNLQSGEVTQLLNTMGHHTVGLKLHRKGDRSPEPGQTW

Binder | pKd
VISERNSTTV [C3AR1, Q16581] | below the threshold
FEEEAEEEVA [TUBB4B, P68371] | below the threshold

Target: Inadl_5, Q8NI35
Experiment: holdup assay
Parameters: key: below the threshold = too weak to quantify, mostly under pKd 3.1 to 4
Conditions: plain residues with an end cap or a label only (N-terminal biotin on a linker: ado-ado)

Chain of Inadl_5, Q8NI35 (Q8NI35 673-780): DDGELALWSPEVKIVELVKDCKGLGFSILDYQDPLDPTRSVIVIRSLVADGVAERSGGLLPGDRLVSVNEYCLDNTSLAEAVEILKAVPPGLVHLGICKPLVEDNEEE

Binder | pKd
VISERNSTTV [C3AR1, Q16581] | 3.65
FEEEAEEEVA [TUBB4B, P68371] | below the threshold

Target: MAST2, Q6P0Q8
Experiment: holdup assay
Parameters: key: below the threshold = too weak to quantify, mostly under pKd 3.1 to 4
Conditions: plain residues with an end cap or a label only (N-terminal biotin on a linker: ado-ado)

Chain of MAST2, Q6P0Q8 (Q6P0Q8 1099-1202): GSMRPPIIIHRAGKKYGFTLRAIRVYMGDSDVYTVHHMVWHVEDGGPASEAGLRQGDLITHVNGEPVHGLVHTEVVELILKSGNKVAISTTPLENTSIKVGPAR

Binder | pKd
VISERNSTTV [C3AR1, Q16581] | 5.2
FEEEAEEEVA [TUBB4B, P68371] | below the threshold

Target: T8, DFNB31_3, Q9P202
Experiment: holdup assay
Parameters: key: below the threshold = too weak to quantify, mostly under pKd 3.1 to 4
Conditions: plain residues with an end cap or a label only (N-terminal biotin on a linker: ado-ado)

Binder | pKd
VISERNSTTV [C3AR1, Q16581] | below the threshold
FEEEAEEEVA [TUBB4B, P68371] | 3.89

Target: T9, LIN7C, Q9NUP9
Experiment: holdup assay
Parameters: key: below the threshold = too weak to quantify, mostly under pKd 3.1 to 4
Conditions: plain residues with an end cap or a label only (N-terminal biotin on a linker: ado-ado)

Binder | pKd
VISERNSTTV [C3AR1, Q16581] | below the threshold
FEEEAEEEVA [TUBB4B, P68371] | 3.76

Target: T10, SNTG1, Q9NSN8
Experiment: holdup assay
Parameters: key: below the threshold = too weak to quantify, mostly under pKd 3.1 to 4
Conditions: plain residues with an end cap or a label only (N-terminal biotin on a linker: ado-ado)

Binder | pKd
VISERNSTTV [C3AR1, Q16581] | below the threshold
FEEEAEEEVA [TUBB4B, P68371] | below the threshold

Target: GRID2IP_1, A4D2P6
Experiment: holdup assay
Parameters: key: below the threshold = too weak to quantify, mostly under pKd 3.1 to 4
Conditions: plain residues with an end cap or a label only (N-terminal biotin on a linker: ado-ado)

Chain of GRID2IP_1, A4D2P6 (A4D2P6 1-87): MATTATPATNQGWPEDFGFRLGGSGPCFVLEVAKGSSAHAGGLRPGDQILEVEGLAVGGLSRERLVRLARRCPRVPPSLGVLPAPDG

Binder | pKd
VISERNSTTV [C3AR1, Q16581] | below the threshold
FEEEAEEEVA [TUBB4B, P68371] | below the threshold

Target: GORASP2, Q9H8Y8
Experiment: holdup assay
Parameters: key: below the threshold = too weak to quantify, mostly under pKd 3.1 to 4
Conditions: plain residues with an end cap or a label only (N-terminal biotin on a linker: ado-ado)

Binder | pKd
VISERNSTTV [C3AR1, Q16581] | below the threshold
FEEEAEEEVA [TUBB4B, P68371] | below the threshold

Target: T11, NHERF3_3, Q5T2W1
Experiment: holdup assay
Parameters: key: below the threshold = too weak to quantify, mostly under pKd 3.1 to 4
Conditions: plain residues with an end cap or a label only (N-terminal biotin on a linker: ado-ado)

Binder | pKd
VISERNSTTV [C3AR1, Q16581] | below the threshold
FEEEAEEEVA [TUBB4B, P68371] | below the threshold

Target: T12, RAPGEF6, Q8TEU7
Experiment: holdup assay
Parameters: key: below the threshold = too weak to quantify, mostly under pKd 3.1 to 4
Conditions: plain residues with an end cap or a label only (N-terminal biotin on a linker: ado-ado)

Binder | pKd
VISERNSTTV [C3AR1, Q16581] | below the threshold
FEEEAEEEVA [TUBB4B, P68371] | below the threshold

Target: PICK1, Q9NRD5
Experiment: holdup assay
Parameters: key: below the threshold = too weak to quantify, mostly under pKd 3.1 to 4
Conditions: plain residues with an end cap or a label only (N-terminal biotin on a linker: ado-ado)

Chain of PICK1, Q9NRD5 (Q9NRD5 17-115): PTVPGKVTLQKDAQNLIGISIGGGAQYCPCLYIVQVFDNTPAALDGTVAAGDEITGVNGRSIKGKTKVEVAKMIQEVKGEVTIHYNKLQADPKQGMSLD

Binder | pKd
VISERNSTTV [C3AR1, Q16581] | below the threshold
FEEEAEEEVA [TUBB4B, P68371] | below the threshold

Target: LNX1_3, Q8TBB1
Experiment: holdup assay
Parameters: key: below the threshold = too weak to quantify, mostly under pKd 3.1 to 4
Conditions: plain residues with an end cap or a label only (N-terminal biotin on a linker: ado-ado)

Chain of LNX1_3, Q8TBB1 (Q8TBB1 500-596): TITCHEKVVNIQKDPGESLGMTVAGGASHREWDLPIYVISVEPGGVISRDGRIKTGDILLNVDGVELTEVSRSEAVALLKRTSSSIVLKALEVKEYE

Binder | pKd
VISERNSTTV [C3AR1, Q16581] | below the threshold
FEEEAEEEVA [TUBB4B, P68371] | below the threshold

Target: FRMPD2_2, Q68DX3
Experiment: holdup assay
Parameters: key: below the threshold = too weak to quantify, mostly under pKd 3.1 to 4
Conditions: plain residues with an end cap or a label only (N-terminal biotin on a linker: ado-ado)

Chain of FRMPD2_2, Q68DX3 (Q68DX3 944-1038): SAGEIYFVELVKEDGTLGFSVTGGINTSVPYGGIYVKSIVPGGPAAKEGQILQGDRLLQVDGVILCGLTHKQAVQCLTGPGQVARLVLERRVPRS

Binder | pKd
VISERNSTTV [C3AR1, Q16581] | below the threshold
FEEEAEEEVA [TUBB4B, P68371] | below the threshold

Target: MAGI2_5, Q86UL8
Experiment: holdup assay
Parameters: key: below the threshold = too weak to quantify, mostly under pKd 3.1 to 4
Conditions: plain residues with an end cap or a label only (N-terminal biotin on a linker: ado-ado)

Chain of MAGI2_5, Q86UL8 (Q86UL8 915-1017): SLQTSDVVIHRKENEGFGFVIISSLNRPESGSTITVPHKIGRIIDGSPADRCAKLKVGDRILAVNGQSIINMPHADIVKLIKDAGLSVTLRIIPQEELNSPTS

Binder | pKd
VISERNSTTV [C3AR1, Q16581] | 3.73
FEEEAEEEVA [TUBB4B, P68371] | below the threshold

Target: T13, PDZD2_2, O15018
Experiment: holdup assay
Parameters: key: below the threshold = too weak to quantify, mostly under pKd 3.1 to 4
Conditions: plain residues with an end cap or a label only (N-terminal biotin on a linker: ado-ado)

Binder | pKd
VISERNSTTV [C3AR1, Q16581] | 4.55
FEEEAEEEVA [TUBB4B, P68371] | below the threshold
